One series deals with IMP3 (IGF2BP3) (UniProt O00425 1-579). Briefly: MST; 5 mM Mg2+. The following applies: protein: recombinant; tags: His-SUMO; label: 3' pCp-Cy5; pseudoknot (SL1, SL2, SL3).
In series [1] the target is ZAP-S (short isoform of zinc-finger antiviral protein) (human, UniProt Q7Z2W4-2 1-699). Description: MST; 5 mM Mg2+. The following applies: protein: recombinant; tags: N-terminal 6xHis-SUMO; label: 3' pCp-Cy5; pseudoknot (SL1, SL2, SL3).
ZAP-S (short isoform of zinc-finger antiviral protein), sequence (Q7Z2W4 other isoform, or with tags, fused parts or gaps): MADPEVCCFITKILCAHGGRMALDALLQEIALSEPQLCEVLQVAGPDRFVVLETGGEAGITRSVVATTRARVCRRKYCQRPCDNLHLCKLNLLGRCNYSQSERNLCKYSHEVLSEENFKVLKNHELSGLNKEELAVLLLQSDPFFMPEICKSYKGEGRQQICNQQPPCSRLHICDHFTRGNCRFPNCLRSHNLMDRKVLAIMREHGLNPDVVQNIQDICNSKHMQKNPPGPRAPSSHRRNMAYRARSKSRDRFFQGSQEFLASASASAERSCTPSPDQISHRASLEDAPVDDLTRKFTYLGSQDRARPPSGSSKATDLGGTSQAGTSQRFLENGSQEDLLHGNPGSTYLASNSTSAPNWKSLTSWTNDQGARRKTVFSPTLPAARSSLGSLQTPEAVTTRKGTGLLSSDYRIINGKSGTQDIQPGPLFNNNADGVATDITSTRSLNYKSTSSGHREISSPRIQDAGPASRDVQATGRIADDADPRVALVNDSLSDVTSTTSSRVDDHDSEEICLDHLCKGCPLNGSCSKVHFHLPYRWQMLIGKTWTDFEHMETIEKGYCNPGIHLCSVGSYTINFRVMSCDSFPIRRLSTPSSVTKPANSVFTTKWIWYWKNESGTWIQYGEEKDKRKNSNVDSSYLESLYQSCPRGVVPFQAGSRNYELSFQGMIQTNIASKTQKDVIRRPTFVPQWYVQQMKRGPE

IMP3 (IGF2BP3), sequence (O00425 whole entry, canonical isoform): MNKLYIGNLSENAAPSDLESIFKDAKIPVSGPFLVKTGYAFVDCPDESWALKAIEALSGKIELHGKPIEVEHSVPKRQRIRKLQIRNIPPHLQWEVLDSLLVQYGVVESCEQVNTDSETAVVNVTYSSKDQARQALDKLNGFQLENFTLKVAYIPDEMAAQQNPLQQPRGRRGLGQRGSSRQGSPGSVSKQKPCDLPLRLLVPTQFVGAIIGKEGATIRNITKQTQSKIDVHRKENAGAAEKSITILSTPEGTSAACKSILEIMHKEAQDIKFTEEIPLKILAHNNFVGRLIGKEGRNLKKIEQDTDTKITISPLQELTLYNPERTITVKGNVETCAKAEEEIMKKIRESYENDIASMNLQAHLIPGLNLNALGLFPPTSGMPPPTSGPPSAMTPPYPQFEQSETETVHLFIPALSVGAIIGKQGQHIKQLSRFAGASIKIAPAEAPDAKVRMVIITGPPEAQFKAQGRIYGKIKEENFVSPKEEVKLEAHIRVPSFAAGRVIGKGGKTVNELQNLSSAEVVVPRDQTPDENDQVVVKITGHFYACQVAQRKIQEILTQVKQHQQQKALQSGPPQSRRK

B1: Full PRF (WT SARS-CoV-2 -1PRF RNA) (structured_RNA)
RNA: UCGUUUUUAAACGGGUUUGCGGUGUAAGUGCAGCCCGUCUUACACCGUGCGGCACAGGCACUAGUACUGAUGUCGUAUACAGGGCUUUUGACAUCUACAAUGAUAAAGUAGCUG
One may read the Kd as the free concentration of one partner at which half of the binding sites on the other are occupied at equilibrium, for simple one-to-one binding. For B1, the values for the Kd (with IMP3 (IGF2BP3); in series [1]) were 806 ± 252 nM and 110 ± 9 nM, respectively.

Source of the values: publication PMC8664833.
